Patent US8003609B2, “Method for ameliorating pain by modification of NMDA receptors through inhibition of Src” (The Hospital for Sick Children, priority 2004, dated 2011)
Square brackets hold non-standard residues; d marks the D form. Ends that are not written are not given here. pY = N[C@@H](Cc1ccc(OP(=O)(O)O)cc1)C(=O)O

Experiments:
AMPA receptor = experiment: mEPSC whole cell recordings in cultured hippocampal neurons, AMPA receptor component; type: cell-based, rat; details: under the recording conditions used
Experimental: (§1) Fetal rat hippocampal neurons were prepared, cultured, and used for electrophysiological recordings 12-17 days after plating. Methods for whole cell recordings are described in Pelkey et al. (Neuron 34:127-138 2002).
(§2) In contrast, in control experiments administering EPQ(pY)EEIPIA (SEQ ID NO:5) increased the NMDAR component of mEPSCs by 172±28% and application of Src40-58 decreased the NMDAR component to 56±4% (FIGS. 5D-F). […] Composite traces are shown in black, the NMDAR component in dark grey, and the AMPAR component in light grey. Scale bars are 50 ms/10 pA. […] NMDA component data were calculated as Q20′/Q2′, and AMPA component data were calculated as A20′/A2′. […] An * indicates a significant difference, Student's t-test, p<0.05. Taking our results together, it is concluded that Src-dependent regulation of the activity of NMDARs depends on expression of ND2 through its anchoring of Src to the NMDAR complex.

NMDAR = experiment: mEPSC whole cell recordings in cultured hippocampal neurons, NMDAR component; type: cell-based, rat
Experimental: as §1, §2

ND2.1-GST = biological target: T1, ND2.1-GST (Homo sapiens, UniProt P03891, A265T); experiment: in vitro binding of biotinylated Src peptides to ND2.1-GST (blot / dot blot); details: biotinylated peptide, streptavidin-HRP detection
T1 construct: made in house; host or cells: bacteria
Experimental: (§3) Src, Fyn, and ND2 recombinant proteins were prepared. The cDNAs encoding the SH3 and SH2 domains of mouse n-Src and Fyn were PCR subcloned, ligated in frame into pGEX4T-1 (Amersham Pharmacia Biotech, Baie d'Urfé, Québec), and sequenced. These plasmids, as well as plasmids encoding the unique domains of Src and Fyn in pGEX2T'6, were transformed into BL21 bacteria, and GST fusion proteins were purified by glutathione affinity chromatography. To create the ND2.1, ND2.2, and ND2.3 GST fusion proteins, cDNAs encoding amino acids 239-321 (ND2.1-GST; SEQ ID NO:7), amino acids 189-238 (ND2.2-GST; SEQ ID NO:11), and amino acids 1-188 (ND2.3-GST; SEQ ID NO:13) of human ND2 were PCR subcloned and ligated into pGEX4T-1 (the nucleotide sequence encoding ND2 is SEQ ID NO:8 and the amino acid sequence is SEQ ID NO:9; the nucleotide sequences encoding ND2.1; ND2.2 and ND2.3 are SEQ ID NOS:6, 10 and 12, respectively). Using PCR-based single nucleotide mutagenesis, all cDNAs encoding ND2 fusion proteins were corrected for differences between mitochondrial and nuclear codons to prevent premature translation termination and protein truncation. All constructs were then confirmed by sequencing. The plasmids were transformed into bacteria, and GST fusion proteins were purified by glutathione affinity chromatography.
Src40-58 and scrambled Src peptides were biotinylated by incubating with Sulfo-NHS-Biotin (Pierce Chemical Co., Rockford, Ill.) for 30 minutes at room temperature (SEQ ID NO:4, Src protein). […] Bound probe was then detected on film using an ECL kit.
To detect the binding of ND2.1-GST with Src peptides, the ND2.1-GST fusion protein was purified on glutathione SEPHAROSE. […] Bound probe was then detected on film using an ECL kit (Amersham Pharmacia Biotech, Baie d'Urfé, Québec).
Src40-58, Src40-49, Src49-58, scrambled Src40-58, TAT-Src40-49, and scrambled TAT-Src40-49 peptides were biotinylated by incubating with Sulfo-NHS-Biotin (Pierce Chemical Co., Rockford, Ill.) for 30 minutes at room temperature. […] Bound probe was then detected on film using an ECL kit.

Src unique domain = biological target: T2, Src unique domain (Mus musculus, UniProt P05480); experiment: blot of ND2-GST fusion proteins probed with biotinylated Src unique domain; type: binding; details: GST fusion protein
T2 construct: amino acids 4-82 (the Src unique domain); GST (N); made in house; host or cells: BL21 bacteria
Experimental: as §3
(§4) Detailed protocols for in vitro binding assays, pull down assays, immunoblotting, and co-immunoprecipitation techniques can be found in Pelkey et al. (Neuron 34:127-138 2002).
As yeast two-hybrid screening may reveal false positive protein-protein interactions, the interaction between Src and ND2 was observed using an independent methodological approach. Direct binding in vitro between ND2 and Src was tested using recombinant proteins. A series of GST fusion proteins comprised of portions of ND2 that spanned the overlapping region found with the yeast two-hybrid screen were made (FIG. 1A). […]

Src [1] = biological target: T3, Src (Rattus norvegicus, UniProt Q9WUD9); experiment: pull down of Src from PSD preparations by ND2-GST fusion proteins; type: binding
T3 construct: from tissue; host or cells: rat brain post-synaptic density fraction
Experimental: as §4
(§5) Post-synaptic density proteins (Kennedy et al. Proceedings of the National Academy of Science USA 80:7357-7361 1983) were prepared from rat brain as described in detail (Pelkey et al. Neuron 34:127-138 2002). Cellular fractionation of rat brain tissue into nuclear, heavy mitochondrial, light mitochondrial, microsomal, and cytosolic fractions was performed by differential centrifugation of tissue homogenate in 0.25 M sucrose/10 mM HEPES-NaOH, 1 mM EDTA, pH 7.4 with 2 μg each of aprotinin, pepstatin A, and leupeptin (Sigma, St. Louis, Mo.) at 4° C. Nuclei were pelleted by centrifugation at 1 000 g for 10 minutes, the supernatant was removed and spun at 3 000 g for 10 minutes to obtain a heavy mitochondrial pellet. The supernatant was removed and spun at 16 000 g for 15 minutes to obtain a light mitochondrial pellet. The supernatant was removed and spun at 100 000 g for 1 hour to obtain a microsomal pellet and the cytosolic fraction. All pellets were then resuspended in RIPA buffer (50 mM Tris pH 7.6, 150 mM NaCl, 1 mM EDTA, 1% NP-40, 2.5 mg/ml NaDOC, 1 mM Na3VO4 1 mM PMSF, and 2 μg/ml each of protease inhibitors). The light mitochondrial fraction was used in subsequent experiments. […]

[2] = test system: SH2 or SH3 domains of Src; experiment: blot of ND2.1-GST probed with biotinylated SH2 and SH3 domains of Src; type: binding, mouse
Experimental: (§6) Src, Fyn, and ND2 recombinant proteins were prepared. The cDNAs encoding the SH3 and SH2 domains of mouse n-Src and Fyn were PCR subcloned, ligated in frame into pGEX4T-1 (Amersham Pharmacia Biotech, Baie d'Urfé, Québec), and sequenced. These plasmids, as well as plasmids encoding the unique domains of Src and Fyn in pGEX2T'6, were transformed into BL21 bacteria, and GST fusion proteins were purified by glutathione affinity chromatography. To create the ND2.1, ND2.2, and ND2.3 GST fusion proteins, cDNAs encoding amino acids 239-321 (ND2.1-GST; SEQ ID NO:7), amino acids 189-238 (ND2.2-GST; SEQ ID NO:11), and amino acids 1-188 (ND2.3-GST; SEQ ID NO:13) of human ND2 were PCR subcloned and ligated into pGEX4T-1 (the nucleotide sequence encoding ND2 is SEQ ID NO:8 and the amino acid sequence is SEQ ID NO:9; the nucleotide sequences encoding ND2.1; ND2.2 and ND2.3 are SEQ ID NOS:6, 10 and 12, respectively). Using PCR-based single nucleotide mutagenesis, all cDNAs encoding ND2 fusion proteins were corrected for differences between mitochondrial and nuclear codons to prevent premature translation termination and protein truncation. All constructs were then confirmed by sequencing. The plasmids were transformed into bacteria, and GST fusion proteins were purified by glutathione affinity chromatography. […]

Fyn unique domain = biological target: T4, Fyn unique domain (Mus musculus, UniProt P39688); experiment: blot of ND2.1-GST probed with biotinylated Fyn unique domain; type: binding
T4 construct: plasmids encoding the unique domains of Src and Fyn in pGEX2T'6; GST (N); made in house; host or cells: BL21 bacteria
T4 sequence (P39688 1-81 limits assumed): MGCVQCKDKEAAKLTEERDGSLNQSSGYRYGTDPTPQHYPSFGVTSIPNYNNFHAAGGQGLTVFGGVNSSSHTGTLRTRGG
Experimental: as §6

Src [3] = biological target: Src (Homo sapiens, UniProt P12931); experiment: catalytic activity of Src in vitro; type: biochemical; details: not illustrated
Excerpt: As ND2 alone is not catalytically active (J. E. Walker Quarterly Reviews of Biophysics 25(3):253-324 1992; Sazanov et al. Journal of Molecular Biology 302:455-464 2000; Sazanove et al. Biochemistry 39:7229-7235 2000), its functional role in the NMDAR complex was investigated. […] Thus, it is unlikely that ND2 is a target of Src or a regulator of Src kinase activity.

[4] = biological target: T5, association of Src with the NMDAR complexes (Rattus norvegicus, UniProt P11662); experiment: co-immunoprecipitation of Src with NMDARs from PSD proteins; type: binding
T5 construct: from tissue; host or cells: rat brain post-synaptic density fraction
T5 sequence (P11662 whole entry, other chains not shown): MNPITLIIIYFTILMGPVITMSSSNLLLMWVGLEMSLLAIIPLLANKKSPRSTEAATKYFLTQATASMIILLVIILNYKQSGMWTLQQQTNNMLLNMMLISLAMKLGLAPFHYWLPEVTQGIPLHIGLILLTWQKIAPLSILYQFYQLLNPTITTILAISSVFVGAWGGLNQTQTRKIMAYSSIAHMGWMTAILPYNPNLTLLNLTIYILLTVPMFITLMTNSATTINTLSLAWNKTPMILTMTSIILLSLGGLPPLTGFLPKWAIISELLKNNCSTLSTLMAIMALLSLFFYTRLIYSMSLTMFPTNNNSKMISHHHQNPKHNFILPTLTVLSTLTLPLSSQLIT
Experimental: as §4, §5

## EPQ(pY)EEIPIA (EPQ[pY]EEIPIA)
AMPA receptor
  AMPA receptor component of the mEPSCs: neither of these reagents affected
NMDAR; control experiments, cultured hippocampal neurons
  NMDAR component of mEPSCs, increased by: 172±28%
NMDAR; neurons treated with chloramphenicol for 48 hours
  NMDAR component of the mEPSCs: not affected

## Src40-49: peptide, 10 amino acid residues, corresponding approximately to amino acid positions 40-49 of the Src unique domain (SEQ ID NO:1) (KPASADGHR; listed as Homo sapiens)
ND2.1-GST
  binding to ND2.1-GST: interacts with ND2

## Src50-58: Src49-58: peptide comprising amino acid residues 49-58 of SEQ ID NO:4; printed Src50-58 in the summary (PSAAFAPAAA; listed as Homo sapiens)
ND2.1-GST
  binding to ND2.1-GST: did not interact

## ND2.2-GST: GST fusion protein containing amino acids 189-238 of human ND2 (SEQ ID NO:11) (WMMAVLPYNPNMTILNLTIYIILTTTAFLLLNLNSSTTTLLLSRTWNKLT; also: GST fusion protein)
Src unique domain
  binding to the unique domain of Src: did not bind

B1: ND2.1-GST: GST fusion protein containing amino acids 239-321 of human ND2 (SEQ ID NO:7) (protein)
chain: WLTPLIPSTLLSLGGLPPLTGFLPKWTIIEEFTKNNSLIIPTIMATITLLNLYFYLRLIYSTSITLLPMSNNVKMKWQFE
modifications: left off: a dimerising Fc or GST
Src unique domain
  binding to the unique domain of Src: bound
Src [1]
  pulls Src from PSD preparations: pulls Src
[2]
  binding to the SH2 or SH3 domains of Src: did not bind
Fyn unique domain
  interaction in vitro with the Fyn unique domain: did not interact
Src [3]
  catalytic activity of Src in vitro: did not alter
[4]
  co-immunoprecipitation of Src with NMDARs: suppressed

B2: ND2.3-GST: GST fusion protein containing amino acids 1-188 of human ND2 (SEQ ID NO:13) (protein)
chain: MNPLAQPVIYSTIFAGTLITALSSHWFFTWVGLEMNMLAFIPVLTKKMNPRSTEAAIKYFLTQATASMILLMAILFNNMLSGQWTMTNTTNQYSSLMIMMAMAMKLGMAPFHFWVPEVTQGTPLTSGLLLLTWQKLAPISIMYQISPSLNVSLLLTLSILSIMAGSWGGLNQTQLRKILAYSSITHMG
modifications: left off: a dimerising Fc or GST
Src unique domain
  binding to the unique domain of Src: did not bind
